Measured values as given in the supplement of paper PMC12764529.
± gives the half width of the 95% confidence interval.

Experiments:
[1] = folding stability dG unfold from chymotrypsin proteolysis; higher = more stable
Method in brief: (§1)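 Designed mini-proteins with no cysteine and under 80 residues were kept only if AlphaFold2 dimer inter-PAE was above 15. In a PA-tagged cDNA display construct, they were digested with trypsin and chymotrypsin and then sequenced. K50 was inferred by Bayesian fitting of counts, and unfolding free energy was derived per protease or combined against a sequence-predicted unfolded-state K50 and a shared folded-state K50.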

[2] = folding stability dG unfold (combined trypsin and chymotrypsin); higher = more stable
Method in brief: as §1

## SAGKSKTITLEIYNKETNIIIKIEIEINGDEVTIKVYAFNKDGKLIAKAEIKFNKKTKKLEIKIEIKKLSAG [r5_747_TrROS_Hall]
[1]
  folding stability dG unfold: 5.07 ± 0.33 kcal/mol
[2]
  folding stability dG unfold: > 6 kcal/mol

## SAGLFDYLHKHNGLVRAALRRNGPPVVIPRLFRIEPDGDTYKLSVPDPDGVPQDWEVLDVEVFKPEDAISAG [r14_427_TrMRF]
[1]
  folding stability dG unfold: 0.275 ± 0.19 kcal/mol
[2]
  folding stability dG unfold: -0.0844 ± 0.18 kcal/mol

## SAGMEVVEKIAKELGYENVKVESITPQVSPSGTTTLTITVKISKPGSTKTFTITASPEEIEEEIKKALSSAG [r5_549_JUSTAS]
[1]
  folding stability dG unfold: 4.72 ± 0.14 kcal/mol
[2]
  folding stability dG unfold: 4.77 ± 0.23 kcal/mol

## SAGMKPGETRHIPIRPGMPPEEFIEEIEAEGPVKIWFPGRKREIDSPDDIEDNFRNFPEPMPIEVKVPSAGG [r19_95_TrROS]
[1]
  folding stability dG unfold: 0.695 ± 0.12 kcal/mol
[2]
  folding stability dG unfold: 0.157 ± 0.28 kcal/mol

## SAGMLVRIETLPPGAATEEVVPMTPEEAKEYLEAQGYTVSTDPANPTMTFSHPDATVTVTFEPVPADLRSAG [r5_248_JUSTAS]
[1]
  folding stability dG unfold: 0.79 ± 0.12 kcal/mol
[2]
  folding stability dG unfold: 0.365 ± 0.15 kcal/mol

## SAGMPLPVKLVSFEPGANTLTIDRPYTNGPVTLSPDGTLTITGTLRDENGKPLETFTETIPVNWPEGTRSAG [r5_475_JUSTAS]
[1]
  folding stability dG unfold: -0.24 ± 0.14 kcal/mol
[2]
  folding stability dG unfold: -0.568 ± 0.17 kcal/mol

## SAGMSTTTTAEIKAAVEAAAGEGLNVAPPTVTATDGTPISDDTVIEPGAPVPVTVDVPIDPVPPPELRSAGG [r19_278_JUSTAS]
[1]
  folding stability dG unfold: 0.336 ± 0.09 kcal/mol
[2]
  folding stability dG unfold: -0.0815 ± 0.28 kcal/mol

## SAGMTFEEEFVEEVDGGEMVKTKTLYEYDPSTNSITVLEEEVEKIPLPEVAPAPAPPEAMEERGAPGALSAG [r5_393_JUSTAS]
[1]
  folding stability dG unfold: 0.254 ± 0.093 kcal/mol
[2]
  folding stability dG unfold: -0.115 ± 0.09 kcal/mol

## SAGMTHVLPVPELSPEEVRALAEALPEGEELVLLVPGPELLAELRAAGFPVDPARFRLATPEERAELLASAG [r5_354_JUSTAS]
[1]
  folding stability dG unfold: 0.857 ± 0.13 kcal/mol
[2]
  folding stability dG unfold: -0.189 ± 0.12 kcal/mol

## SAGNMTNEQLQERIKEAVREDGWPTYRIKMSGPDGKNMNFQVDFPEERRQKIQKELGWDITEVEPRRYSAGG [r19_50_TrROS]
[1]
  folding stability dG unfold: -0.107 ± 0.38 kcal/mol
[2]
  folding stability dG unfold: -0.578 ± 0.3 kcal/mol

## SAGSEVTLEITLTREVPSGKPVTLTETKTVPLAPSVPVEEVIKALKSPEWTAKVTLYTDGTPVTELTLDSAG [r5_278_JUSTAS]
[1]
  folding stability dG unfold: 0.604 ± 0.064 kcal/mol
[2]
  folding stability dG unfold: 0.176 ± 0.069 kcal/mol

## SAGSVPQLIEDKLQEGSPNSSVEVKPVDTLGGTTVLEVKIERIDTSSGNGKLTSEDKIIEVPAGEELGSAGG [r19_8_JUSTAS]
[1]
  folding stability dG unfold: 0.467 ± 0.049 kcal/mol
[2]
  folding stability dG unfold: 0.0158 ± 0.086 kcal/mol

## SAGTVTSSTTPLPDGSLLSTTTTTSPVSGTSVTTSTTTTTPVTPTTPPPPPRPVYPRYYDGVTEPALSLSAG [r5_169_JUSTAS]
[1]
  folding stability dG unfold: -0.12 ± 0.068 kcal/mol
[2]
  folding stability dG unfold: -0.639 ± 0.18 kcal/mol

## SAKKHIPIPMDDPENLKKAIEEALENAENGKKVEIPIRSPDGPVWIEVDPKKKDIKIRNPGNGEERKIKSAG [r14_423_TrROS]
[1]
  folding stability dG unfold: 0.228 ± 0.084 kcal/mol
[2]
  folding stability dG unfold: -0.0974 ± 0.53 kcal/mol

## SAMIEVYRPPDRALVKLPSGKVEILDDPEAFEARVRAESDLPIRVTPLSPESPEFKALLEEIEKKLKGKSAG [r14_235_JUSTAS]
[1]
  folding stability dG unfold: 0.192 ± 0.18 kcal/mol
[2]
  folding stability dG unfold: 0.0988 ± 0.31 kcal/mol

## SAMLTLPVESTDPARVEAAIAEARALAAQGARVEVPVRTPEGPLRFLVDPATGRVVRTDPATGATEVLPSAG [r14_423_JUSTAS]
[1]
  folding stability dG unfold: 0.161 ± 0.17 kcal/mol
[2]
  folding stability dG unfold: -0.244 ± 0.13 kcal/mol

## SAMTISVSETPDTGSLTVPMTLEPDTVEEVVEEVAKEIAPEEAEVSIEVTEVVPHPDSVTVTAKITVRPSAG [r14_345_JUSTAS]
[1]
  folding stability dG unfold: 0.361 ± 0.041 kcal/mol
[2]
  folding stability dG unfold: -0.0666 ± 0.085 kcal/mol

## SAMTTTTTTTDPASGRTVVTTTTPLPDGSVVTTEVDLSNPVRTTTTHPLTDGTPAPTTTTTALPADATLSAG [r14_64_JUSTAS]
[1]
  folding stability dG unfold: 0.0551 ± 0.046 kcal/mol
[2]
  folding stability dG unfold: -0.345 ± 0.12 kcal/mol

## SAMVPLEEAAKRVAEELGLEYTEITKIVPGTGELIVEFPGKKLTVTQDPATGSTTVEETFYDPETGVKKSAG [r14_270_JUSTAS]
[1]
  folding stability dG unfold: -1.35 ± 0.28 kcal/mol
[2]
  folding stability dG unfold: < -1 kcal/mol

## SAPMTPAERARPRIKKLVNLLAEDGNFKVDIERDPGDPGVVVTIKLDPNSREKFAERLGIPRDELYDLISAG [r14_688_TrROS]
[1]
  folding stability dG unfold: -0.0457 ± 0.23 kcal/mol
[2]
  folding stability dG unfold: -0.373 ± 0.41 kcal/mol

## SATKTINFDEFNDMMNQGDPPMLRHIIKEAREKDPDKEITIRMPKNPMFRDYIKEAFKEEGYPVKITPHSAG [r14_236_TrROS]
[1]
  folding stability dG unfold: -0.494 ± 0.36 kcal/mol
[2]
  folding stability dG unfold: < -1 kcal/mol

## SAVTFPVPVTVTVPDADGGPPAVTVPVAVPVDPDAVRDAAIERLRRELAEAGRPDVTEEDLARPEFLAARSA [r9_263_TrMRF]
[1]
  folding stability dG unfold: 0.622 ± 0.16 kcal/mol
[2]
  folding stability dG unfold: -0.335 ± 0.23 kcal/mol

## SDPLGTPVPLTYRVLLTFPGVSRPFLGPGGVVRSVSVNPTVLVPGPANSYPAVRELAEPLGLSVSVTPLASA [r9_1209_TrMRF]
[1]
  folding stability dG unfold: -0.289 ± 0.21 kcal/mol
[2]
  folding stability dG unfold: -0.871 ± 0.23 kcal/mol

## SGMEEIKIEVLSTETDESGTTYTETKIVLPDGKVIEATMTTTTVPDAAGNPVAVETLTLKDKTYTRTIPLSA [r9_271_JUSTAS]
[1]
  folding stability dG unfold: 0.448 ± 0.12 kcal/mol
[2]
  folding stability dG unfold: 0.101 ± 0.17 kcal/mol

## SKPMPADELMEQHPNMIMIRTPNDKHIFINPEENEIFRFNPDEGRVYWIPGTLEEIEELVPDNGFEIWPFSA [r9_721_TrROS]
[1]
  folding stability dG unfold: 0.536 ± 0.21 kcal/mol
[2]
  folding stability dG unfold: 0.286 ± 0.22 kcal/mol

## SMEEKEEVLSVEVDPVGEVVVTRTLVKKSAVDPTNPNNPVPLSLEEIVEPVPLPPPVPLPVPGNPRFEAASA [r9_357_JUSTAS]
[1]
  folding stability dG unfold: 0.77 ± 0.072 kcal/mol
[2]
  folding stability dG unfold: 0.154 ± 0.081 kcal/mol

## SMEPPVPKIKARLVEVREEGERPRALFEIEEIEDAPPEIEELFKRGAKIEVEIPPDYPLKEDEEIEVDPLSA [r9_557_TrMRF]
[1]
  folding stability dG unfold: 0.622 ± 0.15 kcal/mol
[2]
  folding stability dG unfold: 0.0252 ± 0.28 kcal/mol

## SMNVTEEVTVEELPSGEVLTETVVTEPSGVTTVTTTLASPPDRPVVETRTTTYPPDGSSTETSTVAPLPGSA [r9_1179_JUSTAS]
[1]
  folding stability dG unfold: 0.507 ± 0.054 kcal/mol
[2]
  folding stability dG unfold: 0.00729 ± 0.23 kcal/mol

## SMVIPSSLGFEPALERVRALLPPERRYVVTELDPATGETTTATYDPATGTVTTTATPSAAGPPYVVVEVVSA [r9_1059_JUSTAS]
[1]
  folding stability dG unfold: 0.345 ± 0.064 kcal/mol
[2]
  folding stability dG unfold: -0.251 ± 0.086 kcal/mol

## SPKPFEMSIQIPGITPQALEKAVELARKDGWVENEIEPDPENNNVQIDVEMRGTPEKMHRAQNAIQEAIKSA [r9_652_TrROS]
[1]
  folding stability dG unfold: 0.197 ± 0.18 kcal/mol
[2]
  folding stability dG unfold: -0.386 ± 0.21 kcal/mol

## SPPVLYEITITFTYSDGTTVTKTINATVPRSQIDALIQKIIEEPGNKPYTKVTFNIYDKSTGTWTTITIDSA [r9_97_JUSTAS]
[1]
  folding stability dG unfold: 5.76 ± 0.18 kcal/mol
[2]
  folding stability dG unfold: 5.66 ± 0.23 kcal/mol

## SSMVVINFPDTKKATPETLRKEIEPVAAPGKPVLVTVYPPTGVVLKTATVEPDKVEEVDPSHPYIVEIVASA [r9_264_JUSTAS]
[1]
  folding stability dG unfold: -0.377 ± 0.24 kcal/mol
[2]
  folding stability dG unfold: -0.558 ± 0.16 kcal/mol

## SSTTTTTTDPSGYTYSTTVTTHPDSTTTTTGRVTVEKVGDRPVARTTTTTTTVSPGGATTTTTSTTTTLPSA [r9_69_JUSTAS]
[1]
  folding stability dG unfold: 0.589 ± 0.1 kcal/mol
[2]
  folding stability dG unfold: 0.0549 ± 0.082 kcal/mol

## SSVTLLVPVEVTLPTPEGKGPSVTRFVPVPVPEEELRERLIEELREELKKKGEPDVTEEELKDPEVLEELSA [r9_263_JUSTAS]
[1]
  folding stability dG unfold: 0.51 ± 0.046 kcal/mol
[2]
  folding stability dG unfold: -0.0887 ± 0.18 kcal/mol

## STITDVEIYKMPPGEEYPFPNGRKIPPGDYMIYNEDNGHYMSADQIRRILQEIEQELEKLPPPKKPENDKSA [r9_517_TrROS]
[1]
  folding stability dG unfold: 0.251 ± 0.29 kcal/mol
[2]
  folding stability dG unfold: -0.162 ± 0.43 kcal/mol

## VNPRTLTYDPVTNRIDAATPDGTPVTVTAGSSGYTATVTDPATGAPTVVPLTEAELAALEADPAFPLATSNS [r1_18_JUSTAS]
[1]
  folding stability dG unfold: 0.653 ± 0.057 kcal/mol
[2]
  folding stability dG unfold: -0.115 ± 0.056 kcal/mol
